Article PMC3983218

Biological target: T1, MtuSSB (Mycobacterium tuberculosis, UniProt P9WGD5)
T1 sequence: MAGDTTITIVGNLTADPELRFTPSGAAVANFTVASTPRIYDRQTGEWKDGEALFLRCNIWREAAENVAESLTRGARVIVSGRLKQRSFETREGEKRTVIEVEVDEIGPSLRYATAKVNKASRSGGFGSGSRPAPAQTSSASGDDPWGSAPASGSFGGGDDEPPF
Assay: EMSA; 20 mM Tris-HCl pH 8.0, 50 mM NaCl, 5% glycerol, 50 μg/ml BSA, 15 μl, 30 min at 4°C; […]
Conditions: protein: recombinant; chain copies: 4; label: 5' 32P; single strand

B1: 79 mer ssDNA (ssDNA)
DNA: GCACTAGTGCGGATAGCCCCGTGTTGTTGTCTGACCCCCGACCCCGACGGCAATGCGGGGCAATCCCCTGGAGGCCTGC
binding result: binds
